Assay [1] deals with Recombinant catalytically inactive S195A thrombin mutant (UniProt P00734). Kind of assay: other fluorescence titration.
For assay [2], the target named is N-terminal 6xHis-tag derivative of human α-synuclein (6xHis-αSyn) (human) (UniProt P37840). Briefly: SPR. A general note: SPR reads the build-up and loss of mass on a sensor chip optically.
Assay [3] concerns the target Nα-fluoresceinated hirugen, [F]-hirugen. Kind of assay: other fluorescence titration.
The target of assay [4] is Human plasma α-thrombin (αT) (human). Kind of assay: other fluorescence titration.

Square brackets hold non-standard residues; d marks the D form. Ends that are not written are not given here. pY = N[C@@H](Cc1ccc(OP(=O)(O)O)cc1)C(=O)O

Take “Hirugen (C-terminal peptide 54-65 of hirudin HV1)”: in assay [1], the increase of [F]-hirugen fluorescence on displacement turned out to be 65%.

Turning to “Recombinant catalytically inactive S195A thrombin mutant (from UniProt P00734) (enzyme)”, the Kd – broadly, the equilibrium constant for the complex coming apart – in assay [2] was 44 nM; in assay [3], 30 nM.

βT-thrombin (βTT) (enzyme) registered a fold decrease in affinity against S195A in assay [2] of 1.5 fold.

B1: Fibrinogen γ’-peptide (C-terminal peptide 408-427 of fibrinogen elongated γ-chain splice variant) (peptide)
peptide: VRPEHPAETE[pY]DSL[pY]PEDDL
In the case of B1, the fold decrease in affinity with 20 μM αSyn against no αSyn in assay [4] turned out to be 3 fold.

These data come from doi:10.1101/2021.03.28.437436.
